Patent US20220040297A1 (Chugai, published 2022)
Changes are numbered by the printed parent chain.

B1: GLS3000 L33I (antibody, name in Kabat numbering, V domains shown)
VH: QVQLVESGGGVVQPGRSLRLSCAASGFTFSNAWMHWVRQAPGKGLEWVAQIKAKSNNYATYYAESVKGRFTISRDDSKNSLYLQMNSLKTEDTAVYYCRYVHYGAYYGVDAWGQGTTVTVSS
VL: DIVMTQSPLSLPVTPGEPASISCRSSQSLVHSNRNTYIHWYQQKPGQAPRLLIYKVSNRFSGVPDRFSGSGSGTDFTLKISRVEAEDVGVYYCGQGTQVPYTFGQGTKLEIK
notes: one-arm format as m2
B2: GLS3000 N30A (antibody, name in Kabat numbering, V domains shown)
VH: B1 VH
VL: B1 VL with N35A, I38L
notes: one-arm format as m2
B3: GLS3000 N28M (antibody, name in Kabat numbering, V domains shown)
VH: B1 VH
VL: B1 VL with N33M, I38L
notes: one-arm format as m2
B4: GLS3000 N30T (antibody, name in Kabat numbering, V domains shown)
VH: B1 VH
VL: B1 VL with N35T, I38L
notes: one-arm format as m2
B5: GLS3000 N28F (antibody, name in Kabat numbering, V domains shown)
VH: B1 VH
VL: B1 VL with N33F, I38L
notes: one-arm format as m2
B6: GLS3000 N28P (antibody, name in Kabat numbering, V domains shown)
VH: B1 VH
VL: B1 VL with N33P, I38L
notes: one-arm format as m2
B7: GLS3000 N30F (antibody, name in Kabat numbering, V domains shown)
VH: B1 VH
VL: B1 VL with N35F, I38L
notes: one-arm format as m2
B8: GLS3000 N28I (antibody, name in Kabat numbering, V domains shown)
VH: B1 VH
VL: B1 VL with N33I, I38L
notes: one-arm format as m2
B9: GLS3000 N30G (antibody, name in Kabat numbering, V domains shown)
VH: B1 VH
VL: B1 VL with N35G, I38L
notes: one-arm format as m2
B10: GLS3000 N28W (antibody, name in Kabat numbering, V domains shown)
VH: B1 VH
VL: B1 VL with N33W, I38L
notes: one-arm format as m2
B11: GLS3000 N28Q (antibody, name in Kabat numbering, V domains shown)
VH: B1 VH
VL: B1 VL with N33Q, I38L
notes: one-arm format as m2
B12: GLS3000 N28S (antibody, name in Kabat numbering, V domains shown)
VH: B1 VH
VL: B1 VL with N33S, I38L
notes: one-arm format as m2
B13: GLS3000 N28T (antibody, name in Kabat numbering, V domains shown)
VH: B1 VH
VL: B1 VL with N33T, I38L
notes: one-arm format as m2
B14: GLS3000 N28A (antibody, name in Kabat numbering, V domains shown)
VH: B1 VH
VL: B1 VL with N33A, I38L
notes: one-arm format as m2
B15: GLS3000 N53F (antibody, name in Kabat numbering, V domains shown)
VH: B1 VH
VL: B1 VL with I38L, N58F
notes: one-arm format as m2
B16: GLS3000 N28G (antibody, name in Kabat numbering, V domains shown)
VH: B1 VH
VL: B1 VL with N33G, I38L
notes: one-arm format as m2
B17: GLS3000 N30Y (antibody, name in Kabat numbering, V domains shown)
VH: B1 VH
VL: B1 VL with N35Y, I38L
notes: one-arm format as m2
B18: GLS3000 N30Q (antibody, name in Kabat numbering, V domains shown)
VH: B1 VH
VL: B1 VL with N35Q, I38L
notes: one-arm format as m2
B19: GLS3000 N30E (antibody, name in Kabat numbering, V domains shown)
VH: B1 VH
VL: B1 VL with N35E, I38L
notes: one-arm format as m2
B20: GLS3000 N53A (antibody, name in Kabat numbering, V domains shown)
VH: B1 VH
VL: B1 VL with I38L, N58A
notes: one-arm format as m2
B21: GLS3000 N30P (antibody, name in Kabat numbering, V domains shown)
VH: B1 VH
VL: B1 VL with N35P, I38L
notes: one-arm format as m2
B22: GLS3000 N30V (antibody, name in Kabat numbering, V domains shown)
VH: B1 VH
VL: B1 VL with N35V, I38L
notes: one-arm format as m2
B23: GLS3000 N30H (antibody, name in Kabat numbering, V domains shown)
VH: B1 VH
VL: B1 VL with N35H, I38L
notes: one-arm format as m2
B24: GLS3000 N30D (antibody, name in Kabat numbering, V domains shown)
VH: B1 VH
VL: B1 VL with N35D, I38L
notes: one-arm format as m2
B25: GLS3000 L33P (antibody, name in Kabat numbering, V domains shown)
VH: B1 VH
VL: B1 VL with I38P
notes: one-arm format as m2
B26: GLS3000 N30M (antibody, name in Kabat numbering, V domains shown)
VH: B1 VH
VL: B1 VL with N35M, I38L
notes: one-arm format as m2
B27: GLS3000 N30W (antibody, name in Kabat numbering, V domains shown)
VH: B1 VH
VL: B1 VL with N35W, I38L
notes: one-arm format as m2
B28: GLS3000 N28K (antibody, name in Kabat numbering, V domains shown)
VH: B1 VH
VL: B1 VL with N33K, I38L
notes: one-arm format as m2
B29: GLS3000 L33M (antibody, name in Kabat numbering, V domains shown)
VH: B1 VH
VL: B1 VL with I38M
notes: one-arm format as m2
B30: GLS3000 N30K (antibody, name in Kabat numbering, V domains shown)
VH: B1 VH
VL: B1 VL with N35K, I38L
notes: one-arm format as m2
B31: GLS3000 N28E (antibody, name in Kabat numbering, V domains shown)
VH: B1 VH
VL: B1 VL with N33E, I38L
notes: one-arm format as m2
B32: GLS3000 N53E (antibody, name in Kabat numbering, V domains shown)
VH: B1 VH
VL: B1 VL with I38L, N58E
notes: one-arm format as m2
B33: GLS3000 N30S (antibody, name in Kabat numbering, V domains shown)
VH: B1 VH
VL: B1 VL with N35S, I38L
notes: one-arm format as m2
B34: GLS3000 N28L (antibody, name in Kabat numbering, V domains shown)
VH: B1 VH
VL: B1 VL with N33L, I38L
notes: one-arm format as m2
B35: GLS3000 N28V (antibody, name in Kabat numbering, V domains shown)
VH: B1 VH
VL: B1 VL with N33V, I38L
notes: one-arm format as m2
B36: GLS3000 N28H (antibody, name in Kabat numbering, V domains shown)
VH: B1 VH
VL: B1 VL with N33H, I38L
notes: one-arm format as m2
B37: GLS3000 N28D (antibody, name in Kabat numbering, V domains shown)
VH: B1 VH
VL: B1 VL with N33D, I38L
notes: one-arm format as m2
B38: GLS3000 N28Y (antibody, name in Kabat numbering, V domains shown)
VH: B1 VH
VL: B1 VL with N33Y, I38L
notes: one-arm format as m2
B39: GLS3000 N30R (antibody, name in Kabat numbering, V domains shown)
VH: B1 VH
VL: B1 VL with N35R, I38L
notes: one-arm format as m2
B40: GLS3000 N53D (antibody, name in Kabat numbering, V domains shown)
VH: B1 VH
VL: B1 VL with I38L, N58D
notes: one-arm format as m2
B41: GLS3000 N30L (antibody, name in Kabat numbering, V domains shown)
VH: B1 VH
VL: B1 VL with N35L, I38L
notes: one-arm format as m2
B42: GLS3000 L33V (antibody, name in Kabat numbering, V domains shown)
VH: B1 VH
VL: B1 VL with I38V
notes: one-arm format as m2
B43: GLS3000 N30I (antibody, name in Kabat numbering, V domains shown)
VH: B1 VH
VL: B1 VL with N35I, I38L
notes: one-arm format as m2

Molecular target: CD3ε homodimer protein (human, UniProt P07766 23-126, limits assumed)
Assay: SPR, immobilized CD3ε homodimer;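 note: biacore T200 surface plasmon resonance at 25 °C, antibody variants flowed as analytes over amine-coupled CD3ε homodimer on a CM4 chip, variant binding amount divided by that of GLS3000 antibody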
Experimental: Each one-amino acid altered form constructed, expressed, and purified in the paragraph (6-2) was evaluated using Biacore T200 (GE Healthcare Japan Corp.). An appropriate amount of CD3ε homodimer protein was immobilized onto Sensor chip CM4 (GE Healthcare Japan Corp.) by the amine coupling method. Then, the antibody having an appropriate concentration was injected thereto as an analyte and allowed to interact with the CD3ε homodimer protein on the sensor chip. Then, the sensor chip was regenerated by the injection of 10 mmol/L glycine-HCl (pH 1.5). The assay was conducted at 25° C., and HBS-EP+ (GE Healthcare Japan Corp.) was used as a running buffer. […] Each parameter was calculated using Biacore T200 Evaluation Software (GE Healthcare Japan Corp.).
Specifically, when the amount of the GLS3000-containing antibody bound was defined as X and the amount of the L chain one-amino acid altered form bound was defined as Y, a value of Z (ratio of amounts bound)=Y/X was used.

Sequence of CD3ε homodimer protein (P07766 23-126 limits assumed): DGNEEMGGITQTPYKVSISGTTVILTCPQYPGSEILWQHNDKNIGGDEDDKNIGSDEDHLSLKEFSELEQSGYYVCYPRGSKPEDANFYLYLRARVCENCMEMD

Binder	ratio of amounts bound (vs GLS3000)
B1	0.83
B2	0.5
B3	0.39
B4	0.29
B5	0.46
B6	0.36
B7	1.1
B8	0.44
B9	0.47
B10	0.41
B11	0.37
B12	0.32
B13	0.45
B14	0.25
B15	0.69
B16	0.46
B17	1.04
B18	0.87
B19	0.44
B20	0.61
B21	0.31
B22	0.61

Binder	ratio of amounts bound (vs GLS3000)
B23	0.98
B24	0.34
B25	0.3
B26	0.8
B27	0.99
B28	0.44
B29	0.93
B30	1.65
B31	0.4
B32	0.54
B33	0.29
B34	0.39
B35	0.36
B36	0.42
B37	0.19
B38	0.26
B39	1.86
B40	0.34
B41	0.7
B42	1.05
B43	0.61
